The supplement of paper PMC12764529
± gives the half width of the 95% confidence interval.

Columns and labels:
[1] = folding stability dG unfold from chymotrypsin proteolysis; higher = more stable
How it was run: (§1)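 K50 was inferred by Bayesian fitting of sequencing counts obtained after protease digestion of designed mini-proteins. Unfolding free energy was derived by comparison with a sequence-predicted unfolded-state K50 and a shared folded-state K50, for each protease or both combined. The mini-proteins were under 80 residues, had no cysteine, were carried in a PA-tagged cDNA display construct, and were kept only if AlphaFold2 dimer inter-PAE exceeded 15.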

[2] = folding stability dG unfold (combined trypsin and chymotrypsin); higher = more stable
How it was run: as §1

| Sequence | folding stability dG unfold [1] [kcal/mol] | folding stability dG unfold [2] [kcal/mol] |
| --- | --- | --- |
| SAGGTIEEIKEALKKLPEGAVVEVTTENGEKLEFKSLEEIKKATITNENGEKIKITEVKVYPAKKEKSAGGS [r16_680_TrROS_Hall] | 0.569 ± 0.16 | < -1 |
| SAGKIVIEGEPEKLPEAIEEALKNNPDLKKVTIYYGDKSEEFEKDEEVKFFKPKKNKDGKPFMVLVVEDSAG [r5_130_TrMRF] | 0.756 ± 0.23 | -0.00581 ± 0.37 |
| SAGKTVKVTVEKEVTLENGNKVTVKVEKTVELKPPPPKKITLSPEEIEEIDKETGEIRNKKTNKVFKIKSAG [r5_807_TrROS_Hall] | -0.0446 ± 0.37 | < -1 |
| SAGMIVVPLPLSVEEAPAFARELLEAAEAAGLEVTIRVPDEAVAEAVREAAPPDAPVRIEPLEPGEPVESAG [r5_911_JUSTAS] | 0.58 ± 0.054 | 0.128 ± 0.11 |
| SAGMKIKVPFKAEVAPGAKPVKVEVWLGDGPPVATARLYYKVPGEEKTEVALIPIDPSTGKVTVFVKPGSAG [r5_136_TrMRF] | 0.592 ± 0.26 | 0.0709 ± 0.32 |
| SAGMTITIEDLDNGEKVTIEKNPEDPNMVQIEYPNGPEQTFPADEIAEELGLPPSLLQNGIRIKKIKISSAG [r5_156_TrROS] | -0.603 ± 0.23 | < -1 |
| SAGMTPDETVNILVSPDDSPEKVAEIIARHGPLTVTLPGSTREFTSEEEIRALYEQHPEDQVINVTVLSAGG [r19_95_JUSTAS] | -0.0129 ± 0.21 | -0.447 ± 0.28 |
| SAGPLVITVEETDGTVTITIYDAETGEKIAEFTFPKGAEVTIEDGYITIRNKETGETFVFKLPDGVKPSAGG [r19_4_TrROS_Hall] | 6.34 ± 0.27 | > 6 |
| SAGPPEPREIEIPVEGSWSDLRNQVKNVAEEAQPKGEPVQIKIEWGGRPRKYTLNDIDDVPPWMKVEIYSAG [r5_626_TrROS] | -0.0343 ± 0.48 | -0.449 ± 0.74 |
| SAGSHEAWFPIPELLNDPGLEDAWIRVTVHPTPNGNIDIDIEPEPVPKPKITPEEMQEQMEENNKQMKSAGG [r19_313_TrROS] | -0.435 ± 0.064 | < -1 |
| SAGSLPPDVTVPIPRRVRLSESDPALLEAARNGEPVYEELPGDVRVTVELRPLPPDELEVTERVYFPAGSAG [r5_223_JUSTAS] | 0.444 ± 0.12 | -0.000299 ± 0.27 |
| SAGSMTSFPLTLPGGEKISSISVTASPGTEYTTNATLSKDKSKTVTINFDIKPGGEKVVKNISVTTPEESAG [r14_705_JUSTAS] | 0.391 ± 0.2 | -0.0181 ± 0.1 |
| SAGSVTPLPNGEVVTLTTEKIGNEVYLVTKTTLPDGSVETETTPLKPTPPPPAVPVDVSNPYRAKLALASAG [r5_715_JUSTAS] | -0.472 ± 0.35 | -0.814 ± 0.33 |
| SAGTKTIMGRPDDLPEAIEEALDKGPDLKKVKIYWGGREREIPLGDKIKITEPMPNPNGPPFMMIEIEDSAG [r5_130_TrROS] | -0.486 ± 0.38 | < -1 |
| SAGTTTITVPASEASEEEVQALIDEIEAANPHLKVKEVKETVVPLPTPKPVRLRTIIINAELPLPPELLSAG [r5_835_JUSTAS] | 0.447 ± 0.18 | -0.132 ± 0.47 |
| SAGVEVTSTSVDYTLDSSSPSPLRSSASPVRSAPPVEERPVELVDPSGERRLVTLKEIDPEKGGRVLSGSAG [r5_735_JUSTAS] | 0.229 ± 0.26 | 0.185 ± 0.24 |
| SAGVRKIPIESADDLRDEIDKSPGPVIIRNKGNKKYHRIDPDDLNNFAKNGAPIEIMPPDEMPPEMRKQSAG [r5_677_TrROS] | -0.0447 ± 0.14 | -0.332 ± 0.17 |
| SAKKVKIKVVEIEKKEDYVLIKIKLEKNVKKGEKVKIIIKNKNGEKKEITIKNGYIYIKMKKKDIEIKISAG [r14_350_TrROS_Hall] | 4.1 ± 0.29 | 3.93 ± 0.85 |
| SAMEELAKKLKELFPNLEIVSIEEEEVEVEGKKRKVLRIKIKNKNGELLEIEFETPEDKEIAELLKKLLSAG [r14_143_TrROS_Hall] | 5.53 ± 0.15 | > 6 |
| SAMELVLEESTELAEDPTNPGVLVPRTTTRELPVEPPPVVVIGSEENAKKLKKKGEVEVPPSGIILIPLSAG [r14_582_JUSTAS] | 0.517 ± 0.21 | 0.137 ± 0.24 |
